The values below come from the nanobody polyreactivity screen of Harvey et al. (2022).

The series can be described thus: yeast display, Sf9 membrane polyspecificity reagent, FACS + sequencing; frameworks hold sequencing errors. The essentials: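 Using colony PCR, genes from sorted yeast display clones were amplified, then sequenced on MiSeq at 2 × 250 and filtered by CDR length. The clones had been stained with 10% biotinylated, detergent-solubilized Sf9 membrane reagent for 1 hour at 4 °C and sorted by FACS into low and high (top ~1%) gates on anti-HA and streptavidin fluorescence. Polyreactivity labels come from the gate of origin.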
In the case of “QVQLVESGGGLVQAGGSLRLSCAASGNIFARYAMGWYRQAPGKEREMVARISESGGRTYYADSVKARFTISRDNAKNTVYLQMNSLKPEDTAVYYCADRRYIQYGFKFYYWGQGTQLTVSS”, the “polyreactivity (PSR sort gate)” value is on record as “high polyreactivity”.
Turning to “QVQLVESGGGLVQAGGSLRLSCAASGNIFDSYGMGWYRQAPGKERELVATINTSSGSTYYADSVKGRFTISRDNAKNTVYIQMNSLKPEDTAVYYCAAEWYPYTWGYGYWGQGTQVTVSS”, the “polyreactivity (PSR sort gate)” value is given as “low polyreactivity”.
As for “QVQLVESGGGLVQAGGSLRLSCAASGNIFDYYAMGWYRQAPGKERELVAAISTGTSTYADSVKGRFTISRDNAKNTVYLQMNSLKPQDTAVYYCAADVGIRPLNYNPYNYWGQGTQVTVSS”, the entry is “low polyreactivity”; as for “QVQLVESGGGLVQAGGSLRLSCAASGNIFFGYAMGWYRQAPGKEREYVATITKIGGSTYYADSVKGRFTISRDNAKNTVYLQMNSLKPEDTAVYYCAARLGHSVNPGGERWDVEYWGQGTQVTVSS”, “low polyreactivity”; as for “QVQLVESGGGLVQAGGSLRLSCAASGNIFFRYTMGWYRQAPGKERELVAASSASGGSTYYADSVKGRFTISRDNAKNTVYLQMNSLKPEDTAVYYCAARILHYTSEYYYWGQGTQVTVSA”, “high polyreactivity”.
As for “QVQLVESGGGLVQAGGSLRLSCAASGNIFGAYAMGWYRQAPGKERELVATINWSGTRTYADSVKGRFTISRDNAKNTVYLQMNSLKPEDTAVYYCATKIAGRYRTRYYWGQGTQVTVSS”, the entry is “high polyreactivity”; as for “QVQLVESGGGLVQAGGSLRLSCAASGNIFGHYTMGGYRQAPGKERELVAAISRTGGRTYYADSVKGRFTISRDNAKKTVYLQMNSLKPEDTAVYYCAADKGGTYFNGDSWGQGTQVTVSS”, “high polyreactivity”; as for “QVQLVESGGGLVQAGGSLRLSCAASGNIFIYNAMGWYREAPGKERELVAVISNSGSTYYADSVKGRFTISRDNAKNTVYLQMHSLKPEDSAVYYCNKDGGGDSYWYDYWGQGTHVTVSS”, “low polyreactivity”.
“QVQLVESGGGLVQAGGSLRLSCAASGNIFKHYAMGWYRQAPGKERELVAAITWSGGSTHYADSVKGRFTISRDNAKNTVYFQMNSLKPEDTAVSYCAARGWWPGTKWTRYDYWGQGTQVTVSS”: the “polyreactivity (PSR sort gate)” value is “high polyreactivity”.
For “QVQLVESGGGLVQAGGSLRLSCAASGNIFLFYAMGWYRQAPGKERELVATLSWRGVGTYYADSVKGRFTISRDKAKNTGYIQMNSLKPEDTAVYYCAARGVWPEYDYWGQGTQVTVSS”, the “polyreactivity (PSR sort gate)” value was “low polyreactivity”.
On to “QVQLVESGGGLVQAGGSLRLSCAASGNIFPDYAMGWYRQAPGKERELVAAISWSGGSTYYADSVKGRFTISRDNAKNTVYLQMNSLKPEETAVYYCAAGRRGRSYNRIRYDYWGQGTQVTVSS”, for which the “polyreactivity (PSR sort gate)” value was “high polyreactivity”.
Consider “QVQLVESGGGLVQAGGSLRLSCAASGNIFPYYAMGWYRQAPGKERELVASITWSGGRTYYADSVKGRFTISRDNAKNTVYLQMNSLKPEDTAVYYCAKEHHRTGQGRDYDYWGQGTQVTVSS”, for which the “polyreactivity (PSR sort gate)” value is listed as “low polyreactivity”.
In the case of “QVQLVESGGGLVQAGGSLRLSCAASGNIFQRYAMGWYRQAPGKERELVAAISGNGGNTFYADSVKGRFTISRDNAKNSVYLQMNSLKPEDTAVYYCNTVYVVYGYDYWGQGTQVTVSS” it was “high polyreactivity”; in that of “QVQLVESGGGLVQAGGSLRLSCAASGNIFQRYAMGWYRQAPGKERELVAAISYSGARTYYADSVKGRFTISRDNAKNTVYLQMNSLKPEDTAVYYCATYGGLTKFRLAYDYWGQGTQVTVSS”, “high polyreactivity”.
As for “QVQLVESGGGLVQAGGSLRLSCAASGNIFRINGMGWYRQAPGKERELVAAISFSGGSTYYADSVKGRFTISRDNAKNTVYLQMNSLKPEDTAVYYCNADSTKGWYHDYDYWGQGTQVTVSS”, the entry is “low polyreactivity”.
For “QVQLVESGGGLVQAGGSLRLSCAASGNIFRRYAMGWYRQAPGKDRELVAAISISGGNTYYADSVKGRFTISRDNAKNTVYLQMNSLKREDTAVYYCNARLRWYPGYDYWGQGTQVTVSS”, the “polyreactivity (PSR sort gate)” value is given as “high polyreactivity”.
As for “QVQLVESGGGLVQAGGSLRLSCAASGNIFRRYAMGWYRQAPGKERELVAAITWSGGSTYYADSVKGRFTISRDNAKNTVYLQMNSLKPEDTAVYYCAARRFWHYGYPGAYIGFGYWGQGTQVTVSS”, the entry is “high polyreactivity”; as for “QVQLVESGGGLVQAGGSLRLSCAASGNIFRSYAMGWYRQAPGKERELVAAISSRGGSTYYADSVKGRFTISRDNAKNTVYLQMNSLKPEDTAVYYCNAPSTQQGPKYDYWGQGTQVTVSS”, “low polyreactivity”; as for “QVQLVESGGGLVQAGGSLRLSCAASGNIFRSYMGWYRQAPGKERELVASISRRGGSTYYADSVKGRFTISRDNAKNTVYLQMNSLKPEDTAVYYCARRWSWVNGVFGYYWGQGTQVTVSS”, “high polyreactivity”.
On to “QVQLVESGGGLVQAGGSLRLSCAASGNIFSANAMVWDRQAPGKEREFVAAISSTGGSTYYADSVKGRFTISRDNAKNTVYLQMNSLIPEDTAVYYCAAYIRRYLHYDYWGQGSQVTVSS”, for which the “polyreactivity (PSR sort gate)” value is “high polyreactivity”.
In the case of “QVQLVESGGGLVQAGGSLRLSCAASGNIFSAYAMGWYRQAPGTERELVATITSGGITYYADSVKGRFTISRDNAKNSVYLQKNSLKPEDTAVYYCNADHHGQAEYGYWGHGTQVTVSS” it was “low polyreactivity”; in that of “QVQLVESGGGLVQAGGSLRLSCAASGNIFSAYTMGWYRQAPGKERELVAAITGGTSTHYADSVKGRFTISRDNAKNTVYLQMNSLKPEDTAVYYCAADQGRYGIIGWDDYWGQGTQVTVSS”, “low polyreactivity”.
As for “QVQLVESGGGLVQAGGSLRLSCAASGNIFSDYTMGWYRQAPGEERELVAAISGEGGTTYNADSVKGRFTISRDNAKNTVYLQMNRLKPEDPAVYYCAADGYYHAYDQFFIVYYEYDYWGQGTQVTVSS”, the entry is “low polyreactivity”; as for “QVQLVESGGGLVQAGGSLRLSCAASGNIFSGNAMGWYRQAPGKERELVAAISWSGGSTYYADSVKGRFTISRDNAKNTVYLQMNSLKPEDTAVYYCNKDLYADGQYNYDYWGQGTQVTVSS”, “low polyreactivity”; as for “QVQLVESGGGLVQAGGSLRLSCAASGNIFSIYAMGWYRQAPGKERELVARITRVGSTYADSVKGRFTISRDNAKNTVYLQMNSLNPEDTAVYYCAADKNTPHASLDDFNDYDYWGQGTQVTVSS”, “high polyreactivity”.
As for “QVQLVESGGGLVQAGGSLRLSCAASGNIFSKYAMGWYRQAPGKERELVAAISRSGGRTYYADSVKGRFTISRDNAKNTVYLQMNSLNPEDTAFYYCNKAQRHYPYDYWGQGTQVTVSS”, the entry is “high polyreactivity”; as for “QVQLVESGGGLVQAGGSLRLSCAASGNIFSYYAIGSYRHAPRKEREFVAANDWNGGTTYYADSVKGRFTISRDNAKNTVYLQMNSLKPEDTAVYYCAAEYGTWYIPEGEYWGQGTQVTVSS”, “high polyreactivity”; as for “QVQLVESGGGLVQAGGSLRLSCAASGNIFTIYAMGWYRQAPGKERELVAAIDSDGTTYYADSVKGRFTISRYNAKNTVYLQMNSLKPEDTAVYYCAAGGRSVRYNYWGQGTQVTVSS”, “high polyreactivity”.
On to “QVQLVESGGGLVQAGGSLRLSCAASGNIFTKYAMGWYRPAPGKERELVAAITWSGGSTYYADSVKGRFTISRDNAKNTVYLRMNSLKPEDTAVYYCATAHGFRRDKPYDYWGQGTQVTVSS”, for which the “polyreactivity (PSR sort gate)” value is “high polyreactivity”.
As for “QVQLVESGGGLVQAGGSLRLSCAASGNIFTYYAMGWYRQAPGKERELVAAIRWRSGSTYYADSVKGRFTISRDNAKNTVYLQMNSLKPEDTAVYYCAADGTPYEYDYWGHGTQVTVSS”, the entry is “low polyreactivity”; as for “QVQLVESGGGLVQAGGSLRLSCAASGNIFTYYVMGWYRQAPGKQRELVAAISRRGGSTYYADSVKGRFIISRDNAKHTVYLQMNSLKPEDTAVYYCAKKYPRDMDYWGQGTQVTVSS”, “high polyreactivity”; as for “QVQLVESGGGLVQAGGSLRLSCAASGNIFVGNDMGWYRQAPGKERELVAAISSGDTTSYADSVKGRFTISRDNAKNTVYLQMNSLKPEDTAVYYCNTDAPYLLWFTNRYDYWGQGTQVTVSS”, “low polyreactivity”.
With “QVQLVESGGGLVQAGGSLRLSCAASGNIFVPNAMGWYRQAPGKERELVAAIRRGGSTNYADSVKGRFTISRDNAKNTVYLQMNSLKPEDTAVYYCAAYYTYLYHYGTFKIYNYWGQGTQVTVSS”, the “polyreactivity (PSR sort gate)” value is recorded as “low polyreactivity”.
In the case of “QVQLVESGGGLVQAGGSLRLSCAASGNIFWLNAMGWYRQAPGKEREFVADITWSTGSTYYADSVKGRFTISRDNAKNTVYLQMNSLKPEDTAVYYCAADDGYFNYLILRFKYLYDYWGQGTQVTVSS” it was “low polyreactivity”; in that of “QVQLVESGGGLVQAGGSLRLSCAASGNIFWWNAMGWYREATRKERELVAAITSDSTTYYADSVKGRFTISRDNAKNTVYLQMKSLKPEDTAVYYCAAYSYGGQGVDYGYWGQGTQVTVSS”, “low polyreactivity”; in that of “QVQLVESGGGLVQAGGSLRLSCAASGNIFYANDMGWYIQAPGKERELVAAITGSGGSTYYADSVKGRFTISRDNAKNTVYLQMDSLKPEDTAVYYCATPYDIQWASESHDSWGQGTQVTVSS”, “low polyreactivity”.
As for “QVQLVESGGGLVQAGGSLRLSCAASGNIFYAYDMGWYRQAPGKERELVAAITNGDSTDYADSVKGRFTISRDNAKNTVYLQMNSLKPEDTAVYYCATDIHSVHNNRDKHDYDYWGQGTQVTVSS”, the entry is “low polyreactivity”; as for “QVQLVESGGGLVQAGGSLRLSCAASGNIFYINTMGWYRQEPGKERELVDAIDASDGSTYYADSVKGRFTISRDNAKNTVYLQMNSLKPEDTAVYYFASRRGYDSVYYFYTLWYYYWGQGTQVTVSS”, “low polyreactivity”; as for “QVQLVESGGGLVQAGGSLRLSCAASGNIFYLYAMGCYRQAPGKEREFSTSYADSVKGRFTISRDNAKNTVYLQMNSLKPEDTAVYYCAAYKSRGPYYYLFDYWGQGTQVTVSS”, “low polyreactivity”.
Regarding “QVQLVESGGGLVQAGGSLRLSCAASGNIFYRNGMGWYRQAPGKEREFVAAISRRGGSTYYADSVKGRFTISRDNAKNTVYLQMNSLKPEDTAVYYCATRYWPTNKGEYWGQGTQVTVSS”, the “polyreactivity (PSR sort gate)” value is “high polyreactivity”.
